In article PMC4263579:

Molecular target: recombinant NS1 protein (dengue virus non-structural 1 protein)
Experiment: native gel or EMSA; Native-PAGE of the recombinant NS1 protein; data not shown

recombinant NS1 protein (dengue virus non-structural 1 protein)
stoichiometry N: 6
